For the data set, the target named is bFGF (basic fibroblast growth factor) (UniProt P09038).

For three sequences, Kd results are on record in patent US6011020.

Read-outs that look alike come from different tables or passages of the source.

Chain of bFGF (basic fibroblast growth factor) (P09038 143-288): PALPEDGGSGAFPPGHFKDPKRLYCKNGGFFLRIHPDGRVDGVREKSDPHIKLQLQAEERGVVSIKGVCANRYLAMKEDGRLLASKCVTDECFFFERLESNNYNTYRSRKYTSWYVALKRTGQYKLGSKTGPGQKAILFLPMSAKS

GGGCTTTGTAAAACCCCGC [225T3N-PEG-3400] had a Kd (3'-amino-modifier C7 conjugated to PEG 3400 [3' end after position 19: NN = non-nucleotide 3'-amino-modifier C7 and PEG 3400, left out], binding assay with 5'-32P-labeled conjugate, assay type not stated) of 1 nM.

Sequence GGGCTTTGTAAAACCCCGC [225T3] returned a Kd (reference ligand, same affinity as PEG and cholesterol conjugates, binding assay type not stated) of 1 nM. GGGCTTTGTAAAACCCCGC [225t3-Chol] registered a Kd (3'-tetraethyleneglycol cholesterol, binding assay with 5'-32P-labeled conjugate, assay type not stated) of 1 nM.

Usually Kd stands for the equilibrium constant for the complex coming apart. A higher Kd goes with a looser complex.
